US20210163595A1

Columns and labels:
[1] = target: cyno PD-1 expressed on cells (cynomolgus monkey) (UniProt B0LAJ3); test: flow cytometry on CHO cells expressing cyno PD-1; negative control; fit value of a flat curve; no unit in the table
[2] = target: human PD-1 expressed on the cell surface (human) (UniProt Q15116); test: flow cytometry on CHO cells expressing human PD-1; negative control; fit value of a flat curve; no unit in the table
[3] = target: human PD-1 expressed on the cell surface (human) (UniProt Q15116); test: cell-based or functional assay

Chain of UniProt Q15116 (Q15116 25-198 limits assumed): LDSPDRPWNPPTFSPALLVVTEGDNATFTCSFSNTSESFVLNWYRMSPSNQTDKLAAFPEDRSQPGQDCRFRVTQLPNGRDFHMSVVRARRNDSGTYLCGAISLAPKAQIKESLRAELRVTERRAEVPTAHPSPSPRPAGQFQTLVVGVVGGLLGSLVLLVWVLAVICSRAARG
Chain of UniProt B0LAJ3 (B0LAJ3 entry or part of it limits assumed): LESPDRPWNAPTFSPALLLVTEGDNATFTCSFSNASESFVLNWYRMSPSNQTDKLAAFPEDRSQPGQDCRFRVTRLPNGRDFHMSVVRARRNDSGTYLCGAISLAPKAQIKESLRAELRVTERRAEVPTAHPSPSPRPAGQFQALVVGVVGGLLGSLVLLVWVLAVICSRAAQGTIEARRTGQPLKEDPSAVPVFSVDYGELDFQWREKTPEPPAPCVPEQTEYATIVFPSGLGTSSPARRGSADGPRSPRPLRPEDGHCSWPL

LogEC50 [1] | LogEC50 [2] | IL-17 and IFN-γ levels, human whole blood assay (EC50) [3] | Substance
-6.89 | -7.75 | – | huIgG1 Fc
– | – | > 100 nM | human IgG Fc fragment
